Assay in all cases: EMSA
Conditions in all cases: EMSA kit (Biyuntian): 50 ng biotin-labeled DNA, 2 uL binding buffer, 2 ug protein; competitors 5 ug unlabeled DNA; buffer composition, pH and temperature not …

Data set [1] addresses T1, Hot1p (Pichia pastoris (Komagataella phaffii), strain SMD1168?) (UniProt C4QW90).
T1 sequence: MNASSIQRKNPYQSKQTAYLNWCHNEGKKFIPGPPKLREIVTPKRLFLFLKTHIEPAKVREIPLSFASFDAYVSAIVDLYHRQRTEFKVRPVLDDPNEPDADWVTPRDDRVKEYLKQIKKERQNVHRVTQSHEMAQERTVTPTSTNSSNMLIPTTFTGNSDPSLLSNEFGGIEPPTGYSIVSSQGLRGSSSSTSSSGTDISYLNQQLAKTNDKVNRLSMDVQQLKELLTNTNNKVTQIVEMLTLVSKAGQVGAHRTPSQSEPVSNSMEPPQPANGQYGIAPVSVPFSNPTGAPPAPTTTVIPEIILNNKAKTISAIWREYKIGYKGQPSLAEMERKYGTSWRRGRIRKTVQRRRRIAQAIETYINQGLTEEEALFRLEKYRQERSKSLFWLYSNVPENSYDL

Data set [2] addresses T2, Gsm1p (Pichia pastoris (Komagataella phaffii), strain SMD1168?) (UniProt C4R1K8).
T2 sequence: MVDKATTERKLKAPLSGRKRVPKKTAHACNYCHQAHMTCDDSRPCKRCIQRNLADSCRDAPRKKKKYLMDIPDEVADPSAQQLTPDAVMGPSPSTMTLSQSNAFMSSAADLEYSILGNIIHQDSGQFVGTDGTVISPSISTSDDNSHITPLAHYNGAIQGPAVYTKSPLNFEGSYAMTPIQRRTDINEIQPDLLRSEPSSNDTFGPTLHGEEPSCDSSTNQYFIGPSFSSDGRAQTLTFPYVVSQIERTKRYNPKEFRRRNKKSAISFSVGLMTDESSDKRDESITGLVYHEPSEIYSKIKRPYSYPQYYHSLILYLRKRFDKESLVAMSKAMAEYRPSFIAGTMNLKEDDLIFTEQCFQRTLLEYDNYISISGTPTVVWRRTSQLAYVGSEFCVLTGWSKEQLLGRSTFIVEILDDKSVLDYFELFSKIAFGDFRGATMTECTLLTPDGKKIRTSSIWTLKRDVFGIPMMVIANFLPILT

The target in data set [3] is T3, Loc1p (Pichia pastoris (Komagataella phaffii), cloned from P. pastoris genome, strain SMD1168?) (UniProt C4QX18).
T3 sequence: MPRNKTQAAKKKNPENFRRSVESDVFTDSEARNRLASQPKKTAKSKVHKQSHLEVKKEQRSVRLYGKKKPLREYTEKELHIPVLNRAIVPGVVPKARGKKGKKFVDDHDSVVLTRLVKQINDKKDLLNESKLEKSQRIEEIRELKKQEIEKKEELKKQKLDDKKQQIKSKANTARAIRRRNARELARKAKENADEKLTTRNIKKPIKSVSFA

Take “AGATCTTTTTTGTAGAAATGTCTTGGTGTCCTCGTCCAATCAGGTAGCCATCTCTGAAATATCTGGCTCCGTTGCAACTCCGAACGACCTGCTGGCAACGTAAAATTCTCCGGGGTAAAACTTAAATGTGGAGTAATGGAACCAGAAACGTCTCTTCCCTTCTCTCTCCTTCCACCGCCCGTTACCGTCCCTAGGAAATTTTAC (double strand) [pGAP-AB]”: the binding result in data set [1], in data set [2] and in data set [3] was “binds” throughout.

“AGCAGCCCAGGGATGGAAAAGTCCCGGCCGTCGCTGGCAATAATAGCGGGCGGACGCATGTCATGAGATTATTGGAAACCACCAGAATCGAATATAAAAGGCGAACACCTTTCCCAATTTTGGTTTCTCCTGACCCAAAGACTTTAAATTTAATTTATTTGTCCCTATTTCAATCAATTGAACAACTATTTCGAAACG (double strand) [pGAP-CD]”: the binding entry in data set [1] is “binds”; in data set [2] it was “binds”; in data set [3], “no binding”.

On to “CATGCGTCCGCCCGCTATTATTGCCAGCGACGGCCGGGACTTTTCCATCCCTGGGCTGCTAGGTCGGGTACACGACCTCCGTTTTACCCGCAACGTAATGCTGGGAAGAGCATTGCTGCAAGGGGGCCGTAGAAGAAGCTCTCCAGCAGAGTAAAATTTCCTAGGGACGGTAACGGGCGGTGGAAGGAGAGAGAAGGGAAGAGA (double strand) [pGAP-BC]”, for which the binding entry in data set [1], in data set [2] and in data set [3] was “binds” in each case.

The record behind these values is PMC11267847.
